Here are results for 1 substance from patent US20060234925A1.

In test [1] the target is caprine CXCR3 (caprine (goat)) (UniProt Q867B2). Briefly: cell-based or functional assay.
Test [2] concerns the target ovine CXCR3 on peripheral blood mononuclear cells (ovine). Nature of the test: cell-based or functional assay.

Chain of UniProt Q867B2 (Q867B2 whole entry): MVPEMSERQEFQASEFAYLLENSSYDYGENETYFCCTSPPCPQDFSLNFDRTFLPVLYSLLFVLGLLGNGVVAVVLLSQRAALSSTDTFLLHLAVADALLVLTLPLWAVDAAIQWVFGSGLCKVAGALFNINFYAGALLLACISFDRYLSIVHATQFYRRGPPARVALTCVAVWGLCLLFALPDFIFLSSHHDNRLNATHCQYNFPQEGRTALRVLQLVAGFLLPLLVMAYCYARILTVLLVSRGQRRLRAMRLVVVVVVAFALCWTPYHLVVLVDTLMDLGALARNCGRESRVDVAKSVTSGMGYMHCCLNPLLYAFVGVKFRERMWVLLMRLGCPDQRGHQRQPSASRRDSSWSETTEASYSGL

As for “recombinant caprine IP-10 (N-terminal histidine tag, mature region, expressed from pET-14b-cIP-10 in E. coli BL21-SI) (ligand)”, in test [1], the chemotaxis of HTS-1 cells transfected with caprine CXCR3 lay in the range of 1 to 20 ng/mL and the chemotaxis of KU-1 cells transfected with caprine CXCR3 (modified Boyden chamber) is 1 to 20 ng/mL. Also, the chemotaxis of ovine PBMCs in test [2] lay in the range of 0.2 to 5 ng/mL.
